Residue numbers refer to the chain shown, from its start.

Data on 13 molecules can be found in patent US20030068675, “Position dependent recognition of GNN nucleotide triplets by zinc fingers” (published 2003).

What all share (assay): EMSA
Common to all, as to conditions: tags: MBP fusion

For one series, the target named is ZFP SBS#699 (synthetic). The method in brief: (§1)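 Purified ZFP was titrated against labeled double-stranded target (1 nM or lower, at least 10-fold below expected Kd) carrying the natural binding site with flanks. Binding buffer was 10 mM Tris pH 7.5, 100 mM KCl, 1 mM MgCl2, 0.1 mM ZnCl2, 5 mM DTT, 10% glycerol, 0.02% BSA, with equilibration for at least 45 min. Bound and free target were separated on a 10% polyacrylamide gel.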
Sequence of ZFP SBS#699 (synthetic) (chain, as listed by the source): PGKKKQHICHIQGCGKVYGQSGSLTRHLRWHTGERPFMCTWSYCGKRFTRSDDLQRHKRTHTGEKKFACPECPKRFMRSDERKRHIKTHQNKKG

The target of the next series is ZFP SBS#700 (synthetic). The method in brief: as §1
Sequence of ZFP SBS#700 (synthetic) (chain, as listed by the source): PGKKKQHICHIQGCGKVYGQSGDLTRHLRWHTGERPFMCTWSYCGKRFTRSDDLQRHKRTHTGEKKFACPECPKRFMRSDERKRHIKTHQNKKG
The target of the next series is T1, ZFP SBS#695 (synthetic).
T1 chain: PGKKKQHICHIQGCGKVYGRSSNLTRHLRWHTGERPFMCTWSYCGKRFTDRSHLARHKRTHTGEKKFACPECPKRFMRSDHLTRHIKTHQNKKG
In short, it runs like this:
as §1

Another series concerns the target T2, ZFP SBS#705 (synthetic, UniProt P08047).
T2 chain: T1 chain with S22D, N23H, T25A, D50R, R51S, S52D, H53S, T83S
The method in brief:
as §1

In the next series the target is T3, ZFP SBS#706 (synthetic, UniProt P08047).
T3 chain: T1 chain with S22D, N23H, T25A, D50R, R51S, S52D, H53S, A55L, T83S
In short, it runs like this: as §1

For another series, the target named is T4, ZFP SBS#714 (synthetic).
T4 chain: T1 chain with S22D, N23E, T25R, H53A, R84T
In short, it runs like this:
as §1

The next series deals with T5, ZFP SBS#715 (synthetic).
T5 chain: T1 chain with S21A, S22D, N23T, T25R, H53A, R84T
The method in brief: as §1

In another series the target is T6, ZFP SBS#698 (synthetic).
T6 chain: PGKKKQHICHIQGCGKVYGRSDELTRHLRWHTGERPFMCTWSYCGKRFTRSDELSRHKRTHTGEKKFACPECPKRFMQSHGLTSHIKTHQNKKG
In short, it runs like this:
as §1

The target in the next series is T7, ZFP SBS#697 (synthetic).
T7 chain: T6 chain with H80G, G81H, S84K
In short, it runs like this: as §1

A further series has as its target T8, ZFP SBS#702 (synthetic).
T8 chain: T6 chain with E23N, T25A, S55Q, H80G, G81D, S84R
The method in brief: as §1

The next series concerns the target ZFP SBS#701 (synthetic). In short, it runs like this:
as §1

The next series deals with T9, ZFP SBS#722 (synthetic).
T9 chain: T6 chain with E23A, E53H, S55T, Q78R, H80D, G81A, T83R, S84Q
The method in brief:
as §1

The target of a further series is T10, ZFP SBS#718 (synthetic).
T10 chain: T1 chain with R20Q, S22G, N23S, D50Q, R51S, S52G, A55Q, H81A
In short, it runs like this: as §1

A further series concerns the target ZFP SBS#717 (synthetic). The method in brief: as §1
The next series concerns the target T11, ZFP SBS#716 (synthetic).
T11 chain: T1 chain with R20Q, S22G, N23S, D50Q, R51S, S52G, A55Q, S79G, H81A, R84S
The method in brief: as §1

A further series has as its target T12, ZFP SBS#694 (synthetic).
T12 chain: T6 chain with E23N, S51A, E53T, S55R, Q78R, H80D, G81N, S84Q
The method in brief:
as §1

Another series concerns the target T13, ZFP SBS#692 (synthetic, UniProt P08047).
T13 chain: T6 chain with E23N, S55Q, Q78R, H80D, G81N, S84Q
The method in brief:
as §1

The next series deals with T14, ZFP SBS#689 (synthetic).
T14 chain: T6 chain with E23N, S55Q, Q78R, S79L, H80D, G81N, L82R, S84A
In short, it runs like this: as §1

Another series has as its target T15, ZFP SBS#693 (synthetic).
T15 chain: T6 chain with E23N, S51A, E53T, S55R, Q78R, S79L, H80D, G81N, L82R, S84A
In short, it runs like this:
as §1

The target of a further series is ZFP SBS#427 (synthetic). The method in brief:
as §1

The next series has as its target ZFP SBS#374 (synthetic). In short, it runs like this: as §1
For the next series, the target named is T16, ZFP SBS#711 (synthetic).
T16 chain: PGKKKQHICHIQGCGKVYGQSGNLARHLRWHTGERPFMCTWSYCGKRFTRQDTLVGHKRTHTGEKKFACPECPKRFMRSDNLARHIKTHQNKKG
The method in brief:
as §1

In another series the target is T17, ZFP SBS#709 (synthetic).
T17 chain: T16 chain with G22A, Q51K, T53V, G56S
The method in brief: as §1

A further series addresses ZFP SBS#710 (synthetic). In short, it runs like this:
as §1

Another series has as its target T18, ZFP SBS#601 (synthetic).
T18 chain: T16 chain with Q20R, G22A, A25T, Q51L, T53G, V55R, G56T
The method in brief: as §1

Another series deals with T19, ZFP SBS#708 (synthetic).
T19 chain: T16 chain with G22A
In short, it runs like this:
as §1

The target in another series is T20, ZFP SBS#602 (synthetic).
T20 chain: T16 chain with Q20R, G22A, A25T
The method in brief:
as §1

For another series, the target named is ZFP SBS#603 (synthetic). The method in brief: as §1
Sequence of ZFP SBS#603 (synthetic) (chain, as listed by the source): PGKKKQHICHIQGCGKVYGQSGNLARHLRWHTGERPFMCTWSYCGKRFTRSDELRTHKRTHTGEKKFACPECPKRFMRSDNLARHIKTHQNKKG
In another series the target is ZFP SBS#600 (synthetic). In short, it runs like this: as §1
Sequence of ZFP SBS#600 (synthetic) (chain, as listed by the source): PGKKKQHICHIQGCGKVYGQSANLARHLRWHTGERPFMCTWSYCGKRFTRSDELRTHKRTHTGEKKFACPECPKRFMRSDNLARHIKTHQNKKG
For a further series, the target named is T21, ZFP SBS#666 (synthetic).
T21 chain: T6 chain with E23D, E53N, S55T, Q78R, H80D, G81T, T83K, S84K
In short, it runs like this:
as §1

The target of the next series is T22, ZFP SBS#665 (synthetic).
T22 chain: T6 chain with E23D, L24V, E53N, S55T, Q78R, H80D, G81D, T83R, S84R
The method in brief:
as §1

The next series deals with ZFP SBS#425 (synthetic). The method in brief:
as §1

In the next series the target is ZFP SBS#424 (synthetic). In short, it runs like this:
as §1

For another series, the target named is ZFP SBS#426 (synthetic). In short, it runs like this:
as §1

Another series addresses ZFP SBS#565 (synthetic). In short, it runs like this: as §1

Sequence of ZFP SBS#374 (synthetic) (chain, as listed by the source): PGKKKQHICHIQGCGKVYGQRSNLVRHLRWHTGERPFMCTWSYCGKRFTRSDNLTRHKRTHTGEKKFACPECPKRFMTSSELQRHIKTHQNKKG
Sequence of ZFP SBS#565 (synthetic) (chain, as listed by the source): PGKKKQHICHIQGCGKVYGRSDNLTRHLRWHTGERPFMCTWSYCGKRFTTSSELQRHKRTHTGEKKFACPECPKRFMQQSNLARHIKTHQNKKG
Sequence of ZFP SBS#426 (synthetic) (chain, as listed by the source): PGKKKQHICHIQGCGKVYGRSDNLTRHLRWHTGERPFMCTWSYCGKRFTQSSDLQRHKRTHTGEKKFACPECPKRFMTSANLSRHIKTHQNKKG
Sequence of ZFP SBS#710 (synthetic) (chain, as listed by the source): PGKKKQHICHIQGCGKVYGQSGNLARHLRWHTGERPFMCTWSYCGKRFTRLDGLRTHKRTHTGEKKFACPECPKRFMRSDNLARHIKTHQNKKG
Sequence of ZFP SBS#424 (synthetic) (chain, as listed by the source): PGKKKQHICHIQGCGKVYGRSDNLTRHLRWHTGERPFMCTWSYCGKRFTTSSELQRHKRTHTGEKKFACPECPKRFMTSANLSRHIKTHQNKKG
Sequence of ZFP SBS#701 (synthetic) (chain, as listed by the source): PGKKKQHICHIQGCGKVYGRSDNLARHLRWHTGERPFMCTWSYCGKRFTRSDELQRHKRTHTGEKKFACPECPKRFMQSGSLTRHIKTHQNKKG
Sequence of ZFP SBS#427 (synthetic) (chain, as listed by the source): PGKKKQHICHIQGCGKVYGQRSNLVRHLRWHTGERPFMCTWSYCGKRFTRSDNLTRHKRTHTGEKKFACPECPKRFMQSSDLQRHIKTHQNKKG

B1: GCGGCGGCAG (dsDNA)
DNA 1: GCGGCGGCAG
DNA 2: CTGCCGCCGC
With B1, the Kd with ZFP SBS#699 amounted to 21.5 nM; with ZFP SBS#700 it was 45 nM.

B2: GGGGGCGAGC (dsDNA)
DNA 1: GGGGGCGAGC
DNA 2: GCTCGCCCCC
In the series with ZFP SBS#695, B2 registered a Kd of 850 nM.

B3: GGGGTGGGGC (dsDNA)
DNA 1: GGGGTGGGGC
DNA 2: GCCCCACCCC
As for B3, the Kd with ZFP SBS#705 was 0.01 nM; in the series with ZFP SBS#706, 0.05 nM.

B4: TGGGTCGCGG (dsDNA)
DNA 1: TGGGTCGCGG
DNA 2: CCGCGACCCA
As for B4, the dissociation constant (Kd) with ZFP SBS#714 was 200 nM; with ZFP SBS#715, 0.46 nM.

B5: TGAGCGGCGG (dsDNA)
DNA 1: TGAGCGGCGG
DNA 2: CCGCCGCTCA
With B5, the results for the equilibrium dissociation constant (Kd) in the series with ZFP SBS#698 and with ZFP SBS#697 were 300 nM and 200 nM, respectively.

B6: GCAGCGGAGC (dsDNA)
DNA 1: GCAGCGGAGC
DNA 2: GCTCCGCTGC
B6: the dissociation constant (Kd) with ZFP SBS#702 was found to be 73.5 nM; with ZFP SBS#701 it was 50.5 nM.

B7: ATGGGGGTGG (dsDNA)
DNA 1: ATGGGGGTGG
DNA 2: CCACCCCCAT
For the molecule B7, binding in the series with ZFP SBS#722 was characterised by a dissociation constant (Kd) of 0.7 nM.

B8: TTGGGAGCAC (dsDNA)
DNA 1: TTGGGAGCAC
DNA 2: GTGCTCCCAA
In the case of B8, the figures for the dissociation constant Kd with ZFP SBS#718, with ZFP SBS#717 and in the series with ZFP SBS#716 were 108 nM, 150 nM and 200 nM, respectively.

B9: AAGGCGGAGA (dsDNA)
DNA 1: AAGGCGGAGA
DNA 2: TCTCCGCCTT
For the molecule B9, the Kd with ZFP SBS#694 came out at 28.5 nM; in the series with ZFP SBS#692, 51 nM; with ZFP SBS#689, 82.5 nM; in the series with ZFP SBS#693, 95 nM.

B10: GCTGAGGAA (dsDNA)
DNA 1: GCTGAGGAA
DNA 2: TTCCTCAGC
Consider B10, for which the equilibrium dissociation constant (Kd) is 1 nM with ZFP SBS#427 and 3.3 nM in the series with ZFP SBS#374.

B11: GAGTCGGAA (dsDNA)
DNA 1: GAGTCGGAA
DNA 2: TTCCGACTC
As to B11, the dissociation constant (Kd) with ZFP SBS#711 is 400 nM; in the series with ZFP SBS#709, 400 nM; in the series with ZFP SBS#710, 400 nM; with ZFP SBS#601, 607 nM; in the series with ZFP SBS#708 it was 300 nM; in the series with ZFP SBS#602 it was 617 nM. Besides, the Kd stood at 167 nM with ZFP SBS#603 and 207 nM with ZFP SBS#600.

B12: GCGGAGGCGC (dsDNA)
DNA 1: GCGGAGGCGC
DNA 2: GCGCCTCCGC
As to B12, the Kd in the series with ZFP SBS#666 turned out to be 0.5 nM; in the series with ZFP SBS#665 it was 12.5 nM.

B13: GATGCTGAG (dsDNA)
DNA 1: GATGCTGAG
DNA 2: CTCAGCATC
B13: the Kd in the series with ZFP SBS#425 worked out at 25 nM; with ZFP SBS#424, 100 nM; with ZFP SBS#426, 5.5 nM; in the series with ZFP SBS#565, 100 nM.
